Results from paper PMC4937304.
Where “and” joins values, the source holds several entries; their conditions need not be identical. Equal values may be shown once.

Target: Snf1 (wild type) (S. cerevisiae (endogenous in yeast)) (UniProt P06782)
Assay: pull-down

UniProt P06782, sequence (P06782 whole entry): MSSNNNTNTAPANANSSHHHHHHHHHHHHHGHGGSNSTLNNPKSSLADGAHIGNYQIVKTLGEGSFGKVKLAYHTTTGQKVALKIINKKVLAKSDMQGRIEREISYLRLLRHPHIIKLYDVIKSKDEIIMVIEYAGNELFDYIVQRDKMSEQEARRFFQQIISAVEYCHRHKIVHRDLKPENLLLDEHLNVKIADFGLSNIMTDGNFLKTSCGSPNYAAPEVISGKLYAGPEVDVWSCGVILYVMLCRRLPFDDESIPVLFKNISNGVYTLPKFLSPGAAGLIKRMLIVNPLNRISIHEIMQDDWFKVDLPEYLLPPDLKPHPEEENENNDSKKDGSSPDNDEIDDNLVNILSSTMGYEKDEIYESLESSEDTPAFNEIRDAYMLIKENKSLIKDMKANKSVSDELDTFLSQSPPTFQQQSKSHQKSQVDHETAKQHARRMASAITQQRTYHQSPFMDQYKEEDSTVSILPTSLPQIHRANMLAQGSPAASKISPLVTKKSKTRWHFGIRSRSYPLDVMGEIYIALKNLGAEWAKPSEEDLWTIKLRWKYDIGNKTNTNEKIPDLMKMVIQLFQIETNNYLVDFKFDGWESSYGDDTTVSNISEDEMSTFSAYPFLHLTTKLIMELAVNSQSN

With “Bmh (Bmh1 and Bmh2, collectively) (from UniProt P29311 1-267) (natural protein)” the percent of Snf1 bound to Bmh was 30% and 50%.
